The text below walks through data of patent publication US20230071609A1 (Genentech, published 2023).

In assay [1] the target is T1, endogenous human APOL1 (wild-type immortalized podocytes; also JHH-1 cells, kidney and liver tissue) (human, UniProt O14791 28-398).
T1 construct: whole, on cells; Cell or tissue and permeabilization are told under assay; also called podocyte APOL1; endogenous APOL1
T1 sequence (looked up): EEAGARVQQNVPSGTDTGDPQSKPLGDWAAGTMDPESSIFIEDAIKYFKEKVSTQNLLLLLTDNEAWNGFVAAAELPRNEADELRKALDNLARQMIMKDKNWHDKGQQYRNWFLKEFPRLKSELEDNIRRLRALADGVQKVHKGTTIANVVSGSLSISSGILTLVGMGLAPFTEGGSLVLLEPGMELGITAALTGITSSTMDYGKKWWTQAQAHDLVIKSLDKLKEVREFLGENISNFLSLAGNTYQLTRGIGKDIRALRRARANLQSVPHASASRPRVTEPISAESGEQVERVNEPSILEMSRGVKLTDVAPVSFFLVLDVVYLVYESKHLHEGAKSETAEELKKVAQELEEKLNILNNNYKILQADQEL
Put plainly: summary of the Examples: podocyte flow cytometry. The method, then:
(§1) Cells were harvested with 5 mM EDTA in PBS, washed once with growth media and twice with PBS. Approximately 0.5×10⁶/m1 of cells resuspended in PBS were incubated with anti-APOL1 antibodies for 1 h on ice. Following two PBS washes, 2 μg/ml of Alexa488 anti-mouse or anti-rabbit (Invitrogen A11029 and A21206, respectively) was used for 1 h on ice for detection. Cells were washed twice in PBS and resuspended in PBS with 1 μg/ml propidium iodide. Signals were read in a FACSCalibur3 (Becton Dickinson), with the exception of FIG. 8A and FIG. 14, which used a FACSCelesta, and data was analyzed using FlowJo v8.4.5. Mean fluorescence intensities were plotted in PRISM v7 after subtraction of secondary antibody alone background. For low pH experiments, cells were incubated with the antibodies in the presence of PBS pH 7.0 or PBS pH 5.5 for an hour on ice and detected with secondary antibodies at neutral pH.

In assay [2] the target is T2, untagged APOL1-G0, KIK variant, transiently expressed (COS cells) (human, UniProt O14791 29-398).
T2 construct: Origene SC109941 clone with E150K, M228I, R255K
T2 chain: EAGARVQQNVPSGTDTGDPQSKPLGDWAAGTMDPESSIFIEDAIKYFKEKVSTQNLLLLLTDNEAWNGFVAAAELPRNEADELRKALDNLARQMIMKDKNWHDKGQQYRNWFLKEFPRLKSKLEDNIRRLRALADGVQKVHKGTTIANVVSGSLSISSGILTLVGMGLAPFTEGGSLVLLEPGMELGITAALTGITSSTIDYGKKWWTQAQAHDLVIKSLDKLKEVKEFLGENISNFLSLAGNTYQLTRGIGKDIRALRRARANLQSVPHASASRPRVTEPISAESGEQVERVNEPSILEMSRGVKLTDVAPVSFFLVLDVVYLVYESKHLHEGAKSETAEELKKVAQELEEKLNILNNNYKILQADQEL
Description: immunofluorescence on transfected COS cells, 1 µg/ml; grade.

Assay [3] concerns the target T3, iAPOL1-G0 in podocytes (EIK variant, doxycycline-inducible, in APOL1 KO podocytes) (human, UniProt O14791 29-398).
T3 construct: Stably re-expressed untagged APOL1 isoform A in APOL1 KO clone 89401-3; also called iAPOL1-G0 podocytes; iAPOL1 podocytes
T3 chain: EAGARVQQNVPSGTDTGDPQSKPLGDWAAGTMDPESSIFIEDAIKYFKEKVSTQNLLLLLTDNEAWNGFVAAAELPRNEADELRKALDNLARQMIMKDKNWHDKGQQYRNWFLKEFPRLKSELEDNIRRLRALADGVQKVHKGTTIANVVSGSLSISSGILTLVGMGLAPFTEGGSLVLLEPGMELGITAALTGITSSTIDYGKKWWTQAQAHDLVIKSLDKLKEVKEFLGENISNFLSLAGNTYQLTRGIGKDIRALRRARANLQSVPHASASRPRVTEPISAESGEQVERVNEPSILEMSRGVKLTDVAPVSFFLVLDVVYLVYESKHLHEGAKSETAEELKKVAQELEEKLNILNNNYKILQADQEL
Put plainly: flow cytometry, iAPOL1-G0 podocytes, 1 µg/ml. As to the method:
APOL1 KO (black line) is completely negative, overlapping with Alexa488 anti-mouse secondary alone (grey line) as expected. A representative histogram from 3-4 experiments is shown.
as §1
(A flow cytometer gives signals particle by particle.)

In assay [4] the target is T1, endogenous human APOL1 (wild-type …). Description: podocyte flow cytometry. The method, then:
In FIG. 25A, live WT (left) or APOL1 KO (right) podocytes were incubated on ice for 1 h (without fixation or permeabilization) with 2.5 μg/ml 3.6D12 (an APOL2 cross-reactive mAb). “2° Ab” is Alexa488 anti-mouse secondary antibody alone; “—IFNγ” is untreated; “+IFNγ” is IFNγ-treated cells. There is a shift on WT, but not KO cells (which express APOL2 but not APOL1). […] Thus, the shift seen with 3.6D12 in WT cells must represent APOL1, and increases with IFNγ, as expected.
as §1

B1: rabbit monoclonal antibody 5.17D12 (antibody, V domains shown)
VH: QSLEESGGDLVKPGASLTLTCTASGFSFSSNYYMCWVRQAPGKGLEWIACVYVGSGGSTYYASWAKGRFTFSKTSSTTWTLQMTSLTAADTATYFCARDLSYAGDLWGPGTLVTVSS
VL: DPVMTQTPASVSEPVGGTVTINCQASESISSYLAWYQQKPGQPPKLLIYGASNLASGVPSRFKGSGSGTEYTLTISDLECDDAATYYCQSAYYSNSGGHAFGGGTEVVVKG
notes: Rabbit mAb (Method #5), recombinant; also called rabmab 5.17D12
For B1, the binding result in assay [1] and in assay [2] was “binds” in each case.

B2: antibody 3.7D6 (antibody, V domains shown)
VH: QIQLVQSGPDLKKPGETVKISCRTSGYAFTNYGVNWVKQAPGKGLKWMGWINTNTGQTTYAEEFRGRFAISLETSASTAFLTISNLKNEDSATYFCARLIYDGDYISSDFWGQGTTLTVSS
VL: DIQMTQSPDSLSASVGETVTITCGASENIYGALNWYQRKQGKSPQLLIYGATNLADGMSSRFSGSRSGRQYSLKISSLHPDDVATYYCQNALSMPYTFGGGTKLEIKR
notes: Mouse mAb, cloned as murine IgG2a LALAPG; those versions are not written separately; also called PFD antibody 3.7D6
For the molecule B2, the binding result in assay [3] and in assay [2] was “binds” in each case.

B3: antibody 3.1C1 (antibody, V domains shown)
VH: QVQLQQSGPELVKPGASVRISCKASGYTFTNYFIHWVKQRPGQGLEWIGWINPGNLNTKYTEEFKGKATLTADKSSSTAYIQLNSLTSEDSAVYFCVNGNPFVYWGQGTLVTVSA
VL: DIVMTQSPSSLTVIAGEKVTLNCKSSQSLLNSGNQKKYLTWLQQKPGQPPKLLIYWTSTRDSGVPDRFTGSGSGTDFTLTISSVQAEDLAVYYCQNDYSYPLTFGAGTKLEIKR
notes: Mouse mAb, cloned as murine IgG2a LALAPG; not written separately; also called SRA-ID mAb 3.1C1
As to B3, the binding result in assay [1] and in assay [2] was “binds” in each case.

B4: antibody 3.6E10 (antibody, V domains shown)
VH: QVQLQQSGAELAKPGASVKMSCKASGYIFTSYYLHWVKQRPGQGLEWIGYINPNTGYTEYTQNFKDRATLTADKSSSTAYMQLTSLTSEDSAVYFCVNGNPFVYWGQGTLVTVSA
VL: DIVMTQSPSSLTVTTGEKVTMTCRSSQSLLNSGNQKNYLTWFQQKPGQPPKLLIYWTSTRYSGVPDRFTGSGSGTDFTLTISSVQAEDLAVYYCQNDYSYPLTFGAGTKLEIKR
notes: Mouse mAb, cloned as murine IgG2a LALAPG
As for B4, the binding result in assay [1] and in assay [2] was “binds” in each case.

B5: antibody 4.17A5 (antibody, V domains shown)
VH: QVQLQQSGPELLKPGASVKISCKGSGYAFSNSWINWVKLRPGQGLEWIGRIYPGDGDTKYNGKFKGKATLTADKSSSTAHMQLRSLTSVDSAVYFCARFPFGKYEGPGAMDYWGQGTSVTVSS
VL: DIQMTQTTSSLSASLGDRVTISCRASQDISSYLNWYQQKPDGTIKLLIYYTSRLHSGVPSRFSGSGSGTDFSLTISNLEQEDIATYFCQQGNTLPYTFGGGTKLEIKR
notes: Mouse mAb (Method #4), cloned as murine IgG2a LALAPG; also called mAb 4.17A5
With B5, the binding result in assay [2] was “binds”.

B6: antibody 4.12E5 (antibody, V domains shown)
VH: EVQLQQSGPELVKTGASVKISCKASGYSFTGYFMHWVKQSHGKSLEWIGYISCYNGASVYNQRFKGKATFTIDTSSSTAYMQFNSLTSEDSAVYYCARDVLRYPRYAVDYWGQGTSVTVSS
VL: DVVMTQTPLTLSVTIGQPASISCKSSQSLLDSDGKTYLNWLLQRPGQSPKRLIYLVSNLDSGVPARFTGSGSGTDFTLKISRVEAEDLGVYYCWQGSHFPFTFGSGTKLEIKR
notes: as for B4
Take B6: the binding result in assay [1] and in assay [2] was “binds” each time.

B7: antibody 3.6D12 (antibody, V domains shown)
VH: EVMLVESGGGLVRPGGSLKLSCTASGFTFSRCAMSWVRQTPEKRLEWVSAISRDSTYTYYSDSVKGRFTVSRDNAKNTLYLQMSSLRSEDTAMYYCARQIDDYYVDALDYWGQGTSVTVSS
VL: DVQITQSPSYLAASPGETITINCRASKIISKYLAWYQEKPGKTIKLLIYSGFTLQSGIPSRFSGSGSGTDFTLTISSLEPEDFAMYYCQQHNEYPLTFGAGTKLEIKR
notes: Mouse mAb (Method #3), cloned as murine IgG2a LALAPG; Early screens used hybridoma-purified antibody; also called mAb 3.6D12
For the molecule B7, the binding result in assay [4] and in assay [2] was “binds” each time.
